Source: doi:10.1101/2023.02.27.530350 (bioRxiv, 2023)
Read-outs that look alike come from different tables or passages of the source.

T1: WalK-LgBIT (native WalK, sensor histidine kinase) (Staphylococcus aureus, UniProt Q2FKN7 1-608)
T1 sequence (looked up): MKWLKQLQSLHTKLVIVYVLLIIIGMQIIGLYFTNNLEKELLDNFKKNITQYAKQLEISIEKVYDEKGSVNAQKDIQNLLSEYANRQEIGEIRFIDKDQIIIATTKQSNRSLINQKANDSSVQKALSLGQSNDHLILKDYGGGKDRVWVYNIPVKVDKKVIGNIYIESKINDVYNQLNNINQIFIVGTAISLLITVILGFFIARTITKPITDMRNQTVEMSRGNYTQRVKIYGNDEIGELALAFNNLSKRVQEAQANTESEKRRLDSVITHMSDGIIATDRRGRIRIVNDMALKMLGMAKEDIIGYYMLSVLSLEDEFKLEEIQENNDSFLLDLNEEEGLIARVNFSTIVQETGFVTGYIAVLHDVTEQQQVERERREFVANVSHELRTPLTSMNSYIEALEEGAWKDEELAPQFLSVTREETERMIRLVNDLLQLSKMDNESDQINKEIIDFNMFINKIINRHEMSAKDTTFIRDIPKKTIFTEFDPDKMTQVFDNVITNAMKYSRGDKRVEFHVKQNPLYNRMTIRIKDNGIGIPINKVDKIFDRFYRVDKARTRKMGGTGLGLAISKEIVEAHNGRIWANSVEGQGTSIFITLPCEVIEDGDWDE

T2: VraR (Staphylococcus aureus, UniProt Q2FX09 1-209)
T2 sequence: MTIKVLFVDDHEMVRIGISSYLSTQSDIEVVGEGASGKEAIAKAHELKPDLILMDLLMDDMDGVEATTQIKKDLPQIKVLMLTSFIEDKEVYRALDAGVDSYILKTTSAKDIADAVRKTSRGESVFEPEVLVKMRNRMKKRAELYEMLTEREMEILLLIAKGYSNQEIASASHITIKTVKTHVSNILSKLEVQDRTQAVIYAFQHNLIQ

B1: WalR_(T101A)-SmBIT (natural protein, Staphylococcus aureus, UniProt Q2FKN8 1-233, looked up)
chain: MARKVVVVDDEKPIADILEFNLKKEGYDVYCAYDGNDAVDLIYEEEPDIVLLDIMLPGRDGMEVCREVRKKYEMPIIMLTAKDSEIDKVLGLELGADDYVAKPFSTRELIARVKANLRRHYSQPAQDTGNVTNEITIKDIVIYPDAYSIKKRGEDIELTHREFELFHYLSKHMGQVMTREHLLQTVWGYDYFGDVRTVDVTIRRLREKIEDDPSHPEYIVTRRGVGYFLQQHE
B2: sasD promoter EMSA probe (dsDNA)
DNA 1: CTTTTGTAATCGTATGATAATGTAAATGTAATCAAATTGTAATATAAGGGGACAAGACAATGAAAAAATT
DNA 2: AATTTTTTCATTGTCTTGTCCCCTTATATTACAATTTGATTACATTTACATTATCATACGATTACAAAAG
B3: sle1 promoter EMSA probe (dsDNA)
DNA 1: TTTGATGATACAGTATATGATTTTTTTGTAATCATAATGTCATCAAACATCAACCTATTATACATAATAA
DNA 2: TTATTATGTATAATAGGTTGATGTTTGATGACATTATGATTACAAAAAAATCATATACTGTATCATCAAA
B4: SAUSA300_0602 promoter EMSA probe (dsDNA)
DNA 1: GAAATATAAAAGTAGTAATTATTATTTGTAATATAATTGTAATATGACTGTTGTTTTAGAAATGATTGTT
DNA 2: AACAATCATTTCTAAAACAACAGTCATATTACAATTATATTACAAATAATAATTACTACTTTTATATTTC
B5: ltaS promoter EMSA probe (WalR site) (dsDNA)
DNA 1: ATATTTATTAATTGAGCTATGCTTATTATTACAATTTGATTACAAATTTTAAATTTGTTAATTGAATGAT
DNA 2: ATCATTCAATTAACAAATTTAAAATTTGTAATCAAATTGTAATAATAAGCATAGCTCAATTAATAAATAT
B6: ssaA promoter EMSA probe (dsDNA)
DNA 1: AAAACTGAATGTTTCGAAAATAAGTCTGTTACAAATTTGTAATATTACTGAAAATTCTAAATGTATATTT
DNA 2: AAATATACATTTAGAATTTTCAGTAATATTACAAATTTGTAACAGACTTATTTTCGAAACATTCAGTTTT
B7: isaA promoter EMSA probe (dsDNA)
DNA 1: AAATAACACTTGATATTGTAATGTTTTGTAAAGAAAGTGTAATTTACTGGCTGGTTTTTTGTGATATAGT
DNA 2: ACTATATCACAAAAAACCAGCCAGTAAATTACACTTTCTTTACAAAACATTACAATATCAAGTGTTATTT
B8: ltaS promoter EMSA probe (VraR site) (dsDNA)
DNA 1: CATTAGGAGGAAATTATTTGCATCGGACTCGAGTATGAGCTACGTACCAAATATTATTTCATCATTTCTA
DNA 2: TAGAAATGATGAAATAATATTTGGTACGTAGCTCATACTCGAGTCCGATGCAAATAATTTCCTCCTAATG

Tests used:
[1] = biological target: T1, WalK-LgBIT (native WalK, sensor …); assay: split reporter
WalR [2] = biological target: T3, WalR (Staphylococcus aureus, UniProt Q2FKN8 1-233); assay: EMSA
VraR [3] = biological target: T2, VraR; assay: EMSA
WalR [4] = biological target: T3, WalR; assay: EMSA; remark: listed apart in the source
VraR [5] = biological target: T2, VraR; assay: EMSA; remark: listed apart in the source
WalR [6] = biological target: T3, WalR; assay: EMSA; remark: listed apart in the source

T3 sequence (Q2FKN8 whole entry): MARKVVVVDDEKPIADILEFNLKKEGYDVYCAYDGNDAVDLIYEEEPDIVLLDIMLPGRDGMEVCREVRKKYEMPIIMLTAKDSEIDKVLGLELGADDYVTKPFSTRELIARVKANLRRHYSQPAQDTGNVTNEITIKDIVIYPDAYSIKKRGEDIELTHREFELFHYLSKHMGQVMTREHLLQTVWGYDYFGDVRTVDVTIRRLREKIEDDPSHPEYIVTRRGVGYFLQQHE

Binder | binding result (WalR [2]) | other results
B1 |  | fold change of the maximal level of interaction against native WalK/WalR [1]: 1.5 fold
B2 | binds | 
B3 | binds | 
B4 | binds | 
B5 | binds | binding result (VraR [3]): binds
B6 |  | binding result (WalR [4]): binds
B7 | binds | 
B8 |  | binding result (VraR [5]): binds; binding result (WalR [6]): no binding
